These results are taken from patent publication US7556938B1, “Nucleic acids encoding potassium channel interactors” (Millennium Pharmaceuticals, Inc., priority 1998, dated 2009).

One assay addresses T1, rKv4.2 (Rattus norvegicus, UniProt Q63881).
T1 construct: expressed in transfected cells; host or cells: CHO cells, transient transfection with GFP co-transfected
T1 sequence (Q63881 1-630): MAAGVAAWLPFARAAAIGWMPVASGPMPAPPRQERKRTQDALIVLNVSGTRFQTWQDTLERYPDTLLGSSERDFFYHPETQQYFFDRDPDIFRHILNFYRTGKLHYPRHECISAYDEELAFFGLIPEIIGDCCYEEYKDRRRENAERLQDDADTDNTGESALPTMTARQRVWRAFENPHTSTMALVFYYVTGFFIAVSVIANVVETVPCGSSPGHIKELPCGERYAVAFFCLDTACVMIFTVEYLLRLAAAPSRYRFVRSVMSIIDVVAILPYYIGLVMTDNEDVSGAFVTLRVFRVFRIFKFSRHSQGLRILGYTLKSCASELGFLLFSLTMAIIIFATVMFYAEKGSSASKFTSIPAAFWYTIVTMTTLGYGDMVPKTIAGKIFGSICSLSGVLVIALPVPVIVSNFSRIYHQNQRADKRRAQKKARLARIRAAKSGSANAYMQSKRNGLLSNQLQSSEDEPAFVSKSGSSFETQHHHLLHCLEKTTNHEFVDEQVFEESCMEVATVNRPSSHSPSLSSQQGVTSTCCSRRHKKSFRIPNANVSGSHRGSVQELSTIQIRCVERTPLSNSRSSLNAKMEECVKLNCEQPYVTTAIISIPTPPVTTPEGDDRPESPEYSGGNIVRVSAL
The experiment in a line: Patch-clamp of Kv4.2 currents in CHO cells coexpressing KChIPs. In kind it is cell-based. As to the method:
HEK 293 and CHO cells were used for recordings 1-3 days after a transient transfection. Whole-cell currents were recorded from cells expressing GFP, identified by their green fluorescence. […] After Gigaseal and ruptured whole-cell configuration access, resistance was less than 10 MOhms. Whole-cell bath solutions were made from a 10× Hank's balanced salt solution (GibcoBRL) with the following final concentration (in mM): 138 NaCl, 5.4 KCl, 1.3 MgCl2, 1.3 CaCl2, 5.5 D-Glukos and 10 HEPES, pH 7.4. The intracellular electrode solution consisted of (in mM) 140 KCl, 10 HEPES, 10 EGTA, 0.5 MgCl2, pH 7.3. All chemicals were from Sigma (St. Louis, Mo.) or Fisher Scientific (Houston, Tex.). Membrane currents were recorded using a EPC9 patch-clamp amplifier (HEKA, Germany). Data were analyzed using Matlab (Natick, Ma), and leak subtracted if necessary. All experiments were done at room temperature.
Because PCIPs, e.g., KChIP1 (1v), KChIP2 (9ql), and KChIP3 (p19), colocalize and coassociate with Kv4 α-subunits in brain, another critical question was to determine whether these PCIPs alter the conductance properties of Kv4 channels. To address this issue, Kv4.2 and Kv4.3 were expressed alone and in combination with individual PCIPs. CHO cells were transiently-transfected with cDNA using the DOTAP lipofection method as described by the manufacturer (Boehringer Mannheim, Inc.). Transfected cells were identified by cotransfecting enhanced GFP along with the genes of interest and subsequently determining if the cells contained green GFP fluorescence. Currents in CHO cells were measured using the patch-clamp technique (Hamill et al. 1981. Pfluegers Arch. 391: 85-100).
First, the amplitude of the Kv4.2 current increased approximately 7.5 fold in the presence of KChIP1 (amplitude of Kv4.2 alone=0.60+/−0.096 nA/cell; Kv4.2+KChIP1=4.5+/−0.55 nA/cell). […] Finally, the kinetics of Kv4.2 inactivation slowed considerably when Kv4.2 was coexpressed with KChIP1 (inactivation time constant of Kv4.2 alone=28.2+/−2.6 ms; Kv4.2+KChIP1=104.1+/−10.4 ms), while channels recovered from inactivation much more rapidly in cells expressing both Kv4.2 and KChIP1 (recovery tau=53.6+/−7.6 ms) versus cells expressing Kv4.2 alone (recovery tau=272.2+/−26.1 ms).
Background: Patch clamp records ionic current or voltage across a cell membrane.

The target of another assay is T2, rKv4.3N (Rattus norvegicus, UniProt Q62897).
T2 construct: expressed in transfected cells; host or cells: yeast HF7c (bait), mated with Y187 (fish)
T2 sequence (Q62897 1-180): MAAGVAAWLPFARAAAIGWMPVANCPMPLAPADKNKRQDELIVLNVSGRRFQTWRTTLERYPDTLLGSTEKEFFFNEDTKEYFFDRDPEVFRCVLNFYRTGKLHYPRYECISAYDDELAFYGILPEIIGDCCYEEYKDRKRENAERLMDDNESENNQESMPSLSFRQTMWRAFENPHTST
The experiment in a line: Yeast two-hybrid binding and specificity test, Kv4.3 N-terminal bait. The gist of the method:
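Bait of rat Kv4.3 residues 1–180 in pGBT9, expressed in yeast HF7c, screened against a rat midbrain library. Positives scored by His and filter β-galactosidase reporters. Specificity tested by mating prey (in Y187) against a panel of related and unrelated baits and checking reporter activity.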

Where [1] appears, read: rKv4.2 coexpressed with the KChIP, at 50 mV.

B1: KChIP1: Potassium channel interacting protein 1v, a Ca2+-binding protein that binds and modulates Kv4 channels (protein)
chain: MPARVLLAYPGTEMLTQGESEGLQTLGIVVVLCSSLKLLHYLGLIDLSDDKIEDDLEMTMVCHRPEGLEQLEAQTNFTKRELQVLYRGFKNECPSGVVNEETFKQIYAQFFPHGDASTYAHYLFNAFDTTQTGSVKFEDFVTALSILLRGTVHEKLRWTFNLYDINKDGYINKEEMMDIVKAIYDMMGKYTYPVLKEDTPRQHVDVFFQKMDKNKDGIVTLDEFLESCQEDDNIMRSLQLFQNVM
B1: the “activation V1/2” value in the assay with rKv4.2 (Kv4.2 coexpressed with KChIP1) is on record as −12.1+/−1.4 mV. Besides, in the assay with rKv4.2 (setting [1]), the “Inactivation time constant (ms, at 50 mV)” value was found to be 104.1 ± 10.4 ms; the “Peak Current (nA/cell at 50 MV)” value was 4.5+/−0.55 nA/cell; the “Peak Current Density (pA/pF at 50 mV)” value is 306.9+/−57.9 pA/pF. In addition, in the assay with rKv4.2 (versus Kv4.2 alone), the “fold increase of Kv4.2 current amplitude” value is recorded as “approximately 7.5 fold” and the “fold increase of Kv4.2 current density” value worked out at 12 fold. The “binding to rKv4.3N in yeast two-hybrid assay” value with rKv4.3N is “able to bind to the Kv4.3 polypeptide”.
